Earlier results on 1 substance are cited in article PMC2695410.

The data set concerns the target Calmodulin (Bos taurus) (UniProt P62157).

As for “Aquaporin 0 C-terminal peptide C-terminus (from UniProt P30301)”, the Kd is 480 nM.

The term Kd denotes a measure of binding affinity in units of concentration.
